Source: publication PMC7849366 (Genes & Development, 2021)

Biological target: full-length recombinant MYC-KEAP1 (human, UniProt Q14145 1-624)
Assay: pull-down

Chain of full-length recombinant MYC-KEAP1 (Q14145 whole entry): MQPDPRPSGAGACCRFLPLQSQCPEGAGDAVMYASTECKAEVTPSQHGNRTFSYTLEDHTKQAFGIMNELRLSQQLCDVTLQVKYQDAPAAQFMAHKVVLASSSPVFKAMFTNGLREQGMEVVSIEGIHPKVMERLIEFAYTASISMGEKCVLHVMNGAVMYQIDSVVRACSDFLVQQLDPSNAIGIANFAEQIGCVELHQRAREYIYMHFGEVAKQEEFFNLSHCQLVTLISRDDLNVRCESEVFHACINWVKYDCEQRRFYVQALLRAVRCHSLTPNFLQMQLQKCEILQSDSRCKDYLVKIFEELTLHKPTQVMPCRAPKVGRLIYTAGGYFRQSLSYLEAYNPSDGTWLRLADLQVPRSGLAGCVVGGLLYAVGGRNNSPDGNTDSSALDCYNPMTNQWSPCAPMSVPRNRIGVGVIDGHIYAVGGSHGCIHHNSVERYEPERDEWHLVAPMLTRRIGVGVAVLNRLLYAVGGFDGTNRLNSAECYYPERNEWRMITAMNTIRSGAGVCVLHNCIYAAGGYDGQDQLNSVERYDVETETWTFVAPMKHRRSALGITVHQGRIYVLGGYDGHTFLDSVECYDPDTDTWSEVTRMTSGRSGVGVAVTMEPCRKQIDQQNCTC

B1: full-length recombinant GST-ATDC (natural protein)
chain: MEAADASRSNGSSPEARDARSPSGPSGSLENGTKADGKDAKTTNGHGGEAAEGKSLGSALKPGEGRSALFAGNEWRRPIIQFVESGDDKNSNYFSMDSMEGKRSPYAGLQLGAAKKPPVTFAEKGELRKSIFSESRKPTVSIMEPGETRRNSYPRADTGLFSRSKSGSEEVLCDSCIGNKQKAVKSCLVCQASFCELHLKPHLEGAAFRDHQLLEPIRDFEARKCPVHGKTMELFCQTDQTCICYLCMFQEHKNHSTVTVEEAKAEKETELSLQKEQLQLKIIEIEDEAEKWQKEKDRIKSFTTNEKAILEQNFRDLVRDLEKQKEEVRAALEQREQDAVDQVKVIMDALDERAKVLHEDKQTREQLHSISDSVLFLQEFGALMSNYSLPPPLPTYHVLLEGEGLGQSLGNFKDDLLNVCMRHVEKMCKADLSRNFIERNHMENGGDHRYVNNYTNSFGGEWSAPDTMKRYSMYLTPKGGVRTSYQPSSPGRFTKETTQKNFNNLYGTKGNYTSRVWEYSSSIQNSDNDLPVVQGSSSFSLKGYPSLMRSQSPKAQPQTWKSGKQTMLSHYRPFYVNKGNGIGSNEAP
**Q.** For B1, which Kd is on record?
**A.** 2.87 nM
